Experimental data: the RNAGym collection of RNA variant scans (doi:10.7554/elife.80360)

B1: Twister Ribozyme (parent)
chain: AACACUGCCAAUGCCGGUCCCAAGCCCGGAUAAAAGUGGAGGGGGCGG

Variants of: B1
Assay: self-cleavage, relative activity (ratio to wild type); higher = more cleavage; co-transcriptional

In order of falling self-cleavage:
1. AACACUGCCAAUGCCGGUCCCAAGCCCGGAUAAAAGAGGAGGGGGCGG [U37A]  0.883
2. AACACUGCCAAUGCCGGUCCCAAGCCCGGAUAAAAAUGGAGGGGACGG [G36A G45A]  0.714
3. AACACUGCCAAUGCCGGUCCCAAGCCCGGAUAAAACUGGAGGGGGCGG [G36C]  0.691
4. AACACUGCCAAUGCCGGUCCCAAGCCCGGAUAAAACUGGAGGGGGCGC [G36C G48C]  0.657
5. AACACUGCCAAUGCCGGUCCCAAGCCCGGAUAAAAAUGGAGGGGGCGA [G36A G48A]  0.639
6. AACACUGCCAAUGCCGGUCCCAAGCCCGGAUAAAACUGGAGGGGGUGG [G36C C46U]  0.585
7. AACACUGCCAAUGCCGGUCCCAAGCCCGGAUAAAAAUGGAGGGGGAGG [G36A C46A]  0.582
8. AACACUGCCAAUGCCGGUCCCAAGCCCGGAUAAAAAUGGAGGGGUCGG [G36A G45U]  0.579
9. AACACUGCCAAUGCCGGUCCCAAGCCCGGAUAAAAUUGGAGGGGGCGC [G36U G48C]  0.514
10. AACACUGCCAAUGCCGGUCCCAAGCCCGGAUAAAACUGGAGGGUGCGG [G36C G44U]  0.512
11. AACACUGCCAAUGCCGGUCCCAAGCCCGGAUAAAAUUGGAGGGGGCGG [G36U]  0.479
12. AACACUGCCAAUGCCGGUCCCAAGCCCGGAUAAAAUUGGAGGGGGCGA [G36U G48A]  0.43
13. AACACUGCCAAUGCCGGUCCCAAGCCCGGAUAAAACUGGAGGGGGCGA [G36C G48A]  0.422
14. AACACUGCCAAUGCCGGUCCCAAGCCCGGAUAAAAUUGGAGGGGGCUG [G36U G47U]  0.412
15. AACACUGCCAAUGCCGGUCCCAAGCCCGGAUAAAACUGGAGGGCGCGG [G36C G44C]  0.402
16. AACACUGCCAAUGCCGGUCCCAAGCCCGGAUAAAAUUGGAGGGGACGG [G36U G45A]  0.4
17. AACACUGCCAAUGCCGGUCCCAAGCCCGGAUAAAACUGGAGGGGGCUG [G36C G47U]  0.376
18. AACACUGCCAAUGCCGGUCCCAAGCCCGGAUAAAACUGGAGGGGACGG [G36C G45A]  0.37
19. AACACUGCCAAUGCCGGUCCCAAGCCCGGAUAAAAAUCGAGGGGGCGG [G36A G38C]  0.327
20. AACACUGCCAAUGCCGGUCCCAAGCCCGGAUAAAAAGGGAGGGGGCGG [G36A U37G]  0.32
21. AACACUGCCAAUGCCGGUCCCAAGCCCGGAUAAAAUUCGAGGGGGCGG [G36U G38C]  0.286
22. AACACUGCCAAUGCCGGUCCCAAGCCCGGAUAAAAUCGGAGGGGGCGG [G36U U37C]  0.283
23. AACACUGCCAAUGCCGGUCCCAAGCCCGGAUAAAAUUGGAGGGGGCAG [G36U G47A]  0.272
24. AACACUGCCAAUGCCGGUCCCAAGCCCGGAUAAAAAUGGAGGGGGCCG [G36A G47C]  0.234
25. AACACUGCCAAUGCCGGUCCCAAGCCCGGAUAAAAUUGGAGGGGGCCG [G36U G47C]  0.198
26. AACACUGCCAAUGCCGGUCCCAAGCCCGGAUAAAAAUGAAGGGGGCGG [G36A G39A]  0.195
27. AACACUGCCAAUGCCGGUCCCAAGCCCGGAUAAAAUAGGAGGGGGCGG [G36U U37A]  0.177
28. AACACUGCCAAUGCCGGUCCCAAGCCCGGAUAAAACUGGAGGGGGCCG [G36C G47C]  0.171
29. AACACUGCCAAUGCCGGUCCCAAGCCCGGAUAAAAAAGGAGGGGGCGG [G36A U37A]  0.166
30. AACACUGCCAAUGCCGGUCCCAAGCCCGGAUAAAAGAGGGGGGGGCGG [U37A A40G]  0.165
31. AACACUGCCAAUGCCGGUCCCAAGCCCGGAUAAAAUUGGAGGUGGCGG [G36U G43U]  0.15
32. AACACUGCCAAUGCCGGUCCCAAGCCCGGAUAAAACUGGCGGGGGCGG [G36C A40C]  0.15
33. AACACUGCCAAUGCCGGUCCCAAGCCCGGAUAAAAAUGGAGGUGGCGG [G36A G43U]  0.147
34. AACACUGCCAAUGCCGGUCCCAAGCCCGGAUAAAACUGGAGUGGGCGG [G36C G42U]  0.145
35. AACACUGCCAAUGCCGGUCCCAAGCCCGGAUAAAACUGGACGGGGCGG [G36C G41C]  0.141
36. AACACUGCCAAUGCCGGUCCCAAGCCCGGAUAAAAAUGGAGAGGGCGG [G36A G42A]  0.141
37. AACACUGCCAAUGCCGGUCCCAAGCCCGGAUAAAAAUGGAGGAGGCGG [G36A G43A]  0.14
38. AACACUGCCAAUGCCGGUCCCAAGCCCGGAUAAAAGAGGUGGGGGCGG [U37A A40U]  0.137
39. AACACUGCCAAUGCCGGUCCCAAGCCCGGAUAAAACUGGAAGGGGCGG [G36C G41A]  0.134
40. AACACUGCCAAUGCCGGUCCCAAGCCCGGAUAAAAAUGGAUGGGGCGG [G36A G41U]  0.131
41. AACACUGCCAAUGCCGGUCCCAAGCCCGGAUAAAACUGUAGGGGGCGG [G36C G39U]  0.128
42. AACACUGCCAAUGCCGGUCCCAAGCCCGGAUAAAAGAGGCGGGGGCGG [U37A A40C]  0.127
43. AACACUGCCAAUGCCGGUCCCAAGCCCGGAUAAAAUUGGGGGGGGCGG [G36U A40G]  0.125
44. AACACUGCCAAUGCCGGUCCCAAGCCCGGAUAAAAUUGGAAGGGGCGG [G36U G41A]  0.124
45. AACACUGCCAAUGCCGGUCCCAAGCCCGGAUAAAACUGAAGGGGGCGG [G36C G39A]  0.122
46. AACACUGCCAAUGCCGGUCCCAAGCCCGGAUAAAACUUGAGGGGGCGG [G36C G38U]  0.116
47. AACACUGCCAAUGCCGGUCCCAAGCCCGGAUAAAAAUGCAGGGGGCGG [G36A G39C]  0.115
48. AACACUGCCAAUGCCGGUCCCAAGCCCGGAUAAAAUUGGACGGGGCGG [G36U G41C]  0.114
49. AACACUGCCAAUGCCGGUCCCAAGCCCGGAUAAAACUGCAGGGGGCGG [G36C G39C]  0.113
50. AACACUGCCAAUGCCGGUCCCAAGCCCGGAUAAAAUUGGAGUGGGCGG [G36U G42U]  0.103
51. AACACUGCCAAUGCCGGUCCCAAGCCCGGAUAAAACUGGGGGGGGCGG [G36C A40G]  0.0963
52. AACACUGCCAAUGCCGGUCCCAAGCCCGGAUAAAACUGGAUGGGGCGG [G36C G41U]  0.0915
53. AACACUGCCAAUGCCGGUCCCAAGCCCGGAUAAAAUUGGAUGGGGCGG [G36U G41U]  0.0887
54. AACACUGCCAAUGCCGGUCCCAAGCCCGGAUAAAACUGGAGGCGGCGG [G36C G43C]  0.0794
